{"source": "patent US20250368707A1", "about": "(UNIVERSITY OF MIAMI, published 2025)", "target": "the molecule itself", "test": "SEC-MALS under native conditions in PBS; self-association (non-covalent dimer)", "data": [{"protein": "mouse IL-2-10/CD25 (mIL2-linker-CD25-linker-IL10) (other, Under native conditions it is predominately a non-covalent dimer; also called mIL-2-10/CD25; mIL2-10/CD25) APTSSPTSSPTSSSTAEAQQQQQQQQHLEQLLMDLQELLSRMENYRNLKLPRMLTFKFYLPKQATELKDLQCLEDELGPLRHVLDLTQSKSFQLEDAENFISNIRVTVVKLKGSDNTFECQFDDESATVVDFLRRWIAFCQSIISTSPQGGGSGGGSGGGSELCLYDPPEVPNATFKALSYKNGTILNCECKRGFRRLKELVYMRCLGNSWSSNCQCTSNSHDKSRKQVTAQLEHQKEQQTTTDMQKPTQSMHQENLTGHCREPPPWKHEDSKRIYHFVEGQSVHYECIPGYKALQRGPAISICKMKCGKTGWTQPQLTCVDEREHHRFLASEESQGSRNSSPESETSCPITTTDFPQPTETTAMTETFVLTMEYKGGGSGGGSGGGSSRGQYSREDNNCTHFPVGQSHMLLELRTAFSQVKTFFQTKDQLDNILLTDSLMQDFKGYLGCQALSEMIQFYLVEVMPQAEKHGPEIKEHLNSLGEKLKTLRMRLRRCHRFLPCENKSKAVEQVKSDFNKLQDQGVYKAMNEFDIFINCIEAYMMIKMKSGGHHHHHH", "values": [{"measurement": "binding result", "value": "binds"}]}]}
